From the supplement of paper PMC7125110
± gives the standard error. For some assays here: Fewer inactive variants are shown than the library holds.

B1: glmS ribozyme (parent)
chain: AUAAAAGCGCCAGAACUACAGAAAUGUAGUUGACGAGGAGGAGGUUUAUCGAAUUUUCGGCGGAUGCCUCCAAA

Legend:
Conditions in all cases: with glucosamine-6-phosphate
glucosamine-6-phosphate [1] = variants of: B1; test: kcat; higher = faster cleavage; RNA array
Procedure, shortened: (§1)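 Glucosamine-6-phosphate, from 40 μM to 10 mM in HEPES/KCl/Mg(OAc)2 buffer, was flowed over sequenced MiSeq chips carrying barcoded ribozyme variants transcribed in situ by E. coli RNA polymerase. A hybridised Cy3 probe tracked the variants at 37 °C as tiles were imaged over ~14 h. kobs, kcat and KM were obtained by fitting normalised per-tile medians to exponential decays and then applying weighted Michaelis–Menten fits across concentrations.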

glucosamine-6-phosphate [2] = variants of: B1; test: self-cleavage kobs at 40 uM GlcN6P; higher = faster cleavage; RNA array
Procedure, shortened: as §1

glucosamine-6-phosphate [3] = variants of: B1; test: self-cleavage kobs at 160 uM GlcN6P; higher = faster cleavage; RNA array
Procedure, shortened: as §1

glucosamine-6-phosphate [4] = variants of: B1; test: self-cleavage kobs at 2500 uM GlcN6P; higher = faster cleavage; RNA array
Procedure, shortened: as §1

glucosamine-6-phosphate [5] = variants of: B1; test: self-cleavage kobs at 10000 uM GlcN6P; higher = faster cleavage; RNA array
Procedure, shortened: as §1

glucosamine-6-phosphate [6] = variants of: B1; test: KM; higher = weaker cofactor use; RNA array
Procedure, shortened: as §1

glucosamine-6-phosphate [7] = variants of: B1; test: self-cleavage kobs at 640 uM GlcN6P; higher = faster cleavage; RNA array
Procedure, shortened: as §1

Row | Variant | kcat (glucosamine-6-phosphate [1]) [s⁻¹] | self-cleavage kobs at 40 uM GlcN6P (glucosamine-6-phosphate [2]) [s⁻¹] | self-cleavage kobs at 160 uM GlcN6P (glucosamine-6-phosphate [3]) [s⁻¹] | self-cleavage kobs at 2500 uM GlcN6P (glucosamine-6-phosphate [4]) [s⁻¹] | self-cleavage kobs at 10000 uM GlcN6P (glucosamine-6-phosphate [5]) [s⁻¹] | KM (glucosamine-6-phosphate [6]) [mM] | self-cleavage kobs at 640 uM GlcN6P (glucosamine-6-phosphate [7]) [s⁻¹]
1 | G38C U47A | < 1e-05 | < 1e-05 | < 1e-05 | < 1e-05 | < 1e-05 |  | 
2 | A39U G40U | 0.00237 ± 0.00036 | 9.94e-05 ± 1.5e-05 | 0.000285 ± 4.1e-05 | 0.00163 ± 0.00025 | 0.00209 ± 0.00044 | 0.997 ± 0.22 | 0.00112 ± 0.00016
3 | A39U G40C | 0.00382 ± 0.00081 | 0.00011 ± 1.5e-05 | 0.000253 ± 4.7e-05 | 0.00244 ± 0.00039 | 0.00324 ± 0.00043 | 1.85 ± 0.56 | 0.00089 ± 0.0001
4 | G44A U54C | 0.00159 ± 0.00015 |  |  | 0.000372 ± 6.7e-05 | 0.000869 ± 0.00017 | 8.26 ± 0.99 | 0.000114 ± 1.7e-05
5 | U30C G40C | 4.04e-05 ± 5.2e-06 |  |  | 2.58e-05 ± 1.2e-05 | 3.87e-05 ± 1.2e-05 |  | 
6 | A42G A48C | 0.00074 ± 0.00011 |  |  | 0.000276 ± 8.7e-05 | 0.000506 ± 7.8e-05 | 4.5 ± 1.2 | 9.68e-05 ± 2.1e-05
7 | G59U C68G | 2.57e-05 ± 4.8e-06 |  |  |  |  |  | 
8 | C11G A39U | < 1e-05 |  | < 1e-05 | < 1e-05 |  |  | 
9 | A14G A33U | 0.000136 ± 9.7e-06 | < 1e-05 |  | 3.08e-05 ± 1e-05 | 7.29e-05 ± 7e-06 | 8.71 ± 1.3 | 
10 | A12G U55C | 0.00114 ± 0.00024 |  | 4.44e-05 ± 7.8e-06 | 0.000461 ± 7.4e-05 | 0.000755 ± 9.7e-05 | 4.74 ± 1.4 | 0.000118 ± 1.7e-05
11 | A42G C70U | 0.0228 ± 0.01 | 0.000696 ± 0.0001 | 0.00157 ± 0.00029 | 0.0261 ± 0.01 | 0.0178 ± 0.0045 |  | 0.00975 ± 0.0019
12 | G41U U47G | 0.00121 ± 0.0005 | 4.35e-05 ± 1.2e-05 | 3.94e-05 ± 1.2e-05 | 0.000364 ± 8.6e-05 | 0.00093 ± 0.00013 |  | 0.000221 ± 4.5e-05
13 | A39C C71A | 6.38e-05 ± 6.4e-06 |  |  | 4.16e-05 ± 1.1e-05 | 5.25e-05 ± 7.2e-06 | 1.93 ± 0.72 | 
14 | U45C C70U | 0.0085 ± 0.0033 | 0.000103 ± 1.3e-05 | 0.000303 ± 4.5e-05 | 0.00283 ± 0.00041 | 0.00646 ± 0.00093 | 4.58 ± 2.2 | 0.000855 ± 0.00011
15 | A39U A42U | 0.00653 ± 0.0017 | 0.000312 ± 7.2e-05 | 0.000582 ± 8.8e-05 | 0.00602 ± 0.0014 | 0.00529 ± 0.00096 | 1.4 ± 0.53 | 0.00223 ± 0.00042
16 | G40A C70U | 0.000518 ± 0.0001 | 0.000102 ± 1.8e-05 |  | 0.000417 ± 0.00011 | 0.000752 ± 0.00019 | 0.165 ± 0.058 | 
17 | G13U G41A | 5.17e-05 ± 3.4e-06 |  |  | 2.17e-05 ± 8.2e-06 | 3.81e-05 ± 9.2e-06 | 3.54 ± 0.6 | 

Row | Variant | kcat (glucosamine-6-phosphate [1]) [s⁻¹] | self-cleavage kobs at 40 uM GlcN6P (glucosamine-6-phosphate [2]) [s⁻¹] | self-cleavage kobs at 160 uM GlcN6P (glucosamine-6-phosphate [3]) [s⁻¹] | self-cleavage kobs at 2500 uM GlcN6P (glucosamine-6-phosphate [4]) [s⁻¹] | self-cleavage kobs at 10000 uM GlcN6P (glucosamine-6-phosphate [5]) [s⁻¹] | KM (glucosamine-6-phosphate [6]) [mM] | self-cleavage kobs at 640 uM GlcN6P (glucosamine-6-phosphate [7]) [s⁻¹]
18 | C11U G37C | 1.18e-05 ± 3.2e-06 |  |  |  |  |  | 
19 | A14U U31G A39C | 0.000999 ± 0.00027 |  | 5.41e-05 ± 2e-05 | 0.000373 ± 9.9e-05 | 0.000701 ± 0.00017 | 4.36 ± 1.7 | 0.000117 ± 2.6e-05
20 | U49G C58A | 3.25e-05 ± 8.4e-06 | < 1e-05 |  |  |  | 6.15 ± 2.7 | 
21 | G13C A33G | < 1e-05 |  |  |  | < 1e-05 |  | < 1e-05
22 | G51U C58U | < 1e-05 |  | < 1e-05 |  | < 1e-05 |  | 
23 | U47G C61G | 1.1e-05 ± 2e-06 |  |  |  |  |  | 
24 | U54A G59U | 0.000197 ± 2.9e-05 |  |  |  | 5.84e-05 ± 1e-05 |  | 
25 | U56A C58A | 0.00106 ± 0.00052 |  | 3.2e-05 ± 1.1e-05 | 0.000187 ± 2.3e-05 | 0.000605 ± 5.6e-05 |  | 0.000101 ± 1.3e-05
26 | U54G C68U C70A | 6.79e-05 ± 7.7e-06 |  |  |  | 6.28e-05 ± 1.4e-05 |  | 
27 | A33C U54G | 0.00057 ± 0.00014 |  | 8.91e-05 ± 2.6e-05 | 0.000325 ± 3.8e-05 | 0.00043 ± 4.3e-05 |  | 8.56e-05 ± 1.7e-05
28 | G29A G41C | 3.14e-05 ± 5.6e-06 |  |  | 2.97e-05 ± 1.2e-05 |  |  | 
29 | C50U U57C | < 1e-05 | < 1e-05 | < 1e-05 |  |  |  | 
30 | A12U G60U | 1.13e-05 ± 1.6e-06 | < 1e-05 | < 1e-05 |  | < 1e-05 |  | 
31 | G13A U45C | 3.07e-05 ± 4.9e-06 |  | < 1e-05 |  | 2.82e-05 ± 1.3e-05 |  | 
32 | U46A U55A | 0.00375 ± 0.001 | 5.91e-05 ± 1.3e-05 | 0.00063 ± 0.00021 | 0.00221 ± 0.00094 | 0.00298 ± 0.00056 | 2.14 ± 0.82 | 0.00107 ± 0.00026
33 | U45A U65G | 0.00585 ± 0.001 | 5.91e-05 ± 7.9e-06 |  | 0.00235 ± 0.00063 | 0.00411 ± 0.00045 | 4.29 ± 1.1 | 0.000543 ± 0.00016
34 | A52G | 0.00319 ± 0.00046 | 3.36e-05 ± 1e-06 | 0.000104 ± 3.3e-06 | 0.00127 ± 5.6e-05 | 0.0022 ± 6.2e-05 | 4.41 ± 0.79 | 0.000385 ± 9.1e-06
